From the DeepSol protein solubility set

Experiment: soluble on expression in E. coli; label from the status in PepcDB or PDB records

| Sequence | soluble on expression in E. coli |
| --- | --- |
| MGSDKIHHHHHHMYEHQTYEAILVRMLARVPETIDKREGSLIYDALAPGAAELAQAYAELVVNNNLSFADTASGEFLTRRAAEFGIKRKVATKAWRRGGFLDSNNALLNIPLGSRYSIGGLNYTAIEQISTGAYVLECETAGTAGNQQFGDLLPIAYVNSLARAELTEVLVPGEDEETDEALLSRYYETVNEPAFGGNMADYRQKVNAINGVGGTKVFPTWAGGGTVKCTIIASDWAKPSPELVNEVQSTMDPEENQGMGLGQAPIGHAVTIAGVDKVTVDVETTLTLAPGVTPGQVQSDVEAILDAYLLEQRKTWAAQTQIIIRMAQIDARMLTVQGVEDVTGTKLNGTEANFLLDEEEIPILGTVIINE | not soluble |
| MPESIPQFYKRIQSCDLQSDTTYSKEKPYFNIFSRQCNFGTVQFSYREFYKVTLIIGVGKLYYADKWILVNRPALLFSNPLVPYAWESISEEQKGVFCIFNERFVQSEEKNGSLANTPLFKVTGDKVFFLDDTQVAKVLDIYTQMQEENQSDYVNKFDVLRCYLHLLIHTALKMQDSNRYESHLNASQRITELFIELLDRQFPIDYPHAVLNLRTPADYANRLSVHVNHLNKVIKDTTGKTTSEMIAERIIKECTQYLLHSNLSISEIAYSLGFETVSYFSKFYRKHTGKSPSEVRERTII | not soluble |
| MGSDKIHHHHHHMAIYLEMPKLIHEFPFRSLSNEGEVLTTPHWHKEIEILLITEGVVNLFINDKPMQLKKGEIVIIKGGDIHYILPSPGSERLVFQFDISFFNDLILLNEEKESLINLFSSIKKCSRDWSAKIRKSVFDILIDIYNEDLYKIEGYSYAIKGKMYNLIPILYRQIPREIEENTVEYEINSKEILERLNNIFKYVEKNYKQPIKLEDVSYEVGFSVYYFTKFFKKNTGKTFITFLNEYRLEKAKWILLNNNISIVDLVEEVGFGSTKTFYRVFKEKIGVSPLEFKKRYNSLEKKGSVSK | not soluble |
| SAVERVEILRDGAAAQYGSDAIAGVVNIILKAKSTGGGIAYQYGGYTQGDGDQQKILGWKSFALPNDGSVTVAFDAGKRDAANNTLPDSRKFYNSSSSTNAQYNDQNTPYRTWRFGSPEIKDQINLSYNADLPLADDTSLYSFGTYGHRKTIGEGFYEPSTATAAVNQSIYYKERYPDGRIPLSIVTVDDFALTAGAKKGDQKTGKLDGFVTYGRNKVHTDQDNGINPSYGSGSPSSYSLGDNIFSQLNTGLDYSLDANTSWFYHPITVSTGILYRWEQYQQVAGDPVAYTRGPYYNVTTAPEIYSGITDADQRKIDRNVYGAYLDLETEIVKDLNVGVALRSEKYSDFGNTTNGKLTLKYDFDPKLNLRGSASTGYRAPS | not soluble |
| VSQLFEEKAKAVNELPTKPSTDELLELYALYKQATVGDNDKEKPGIFNMKDRYKWEAWENLKGKSQEDAEKEYIALVDQLIAKYSS | soluble |
| VAATKASTATDEPVKRTATKSPAASASGAKTGAKRTAAKSASGSPPAKRATKPAARSVKPASAPQDTTTSTIPKRKTRAAAKSAAAKAPSARGHATKPRAPKDAQHEAATDPEDALDSVEELDAEPDLDVEPGEDLDLDAADLNLDDLEDDVAPDADDDLDSGDDEDHEDLEAEAAVAPGQTADDDEEIAEPTEKDKASGDFVWDEDESEALRQARKDAELTASADSVRAYLKQIGKVALLNAEEEVELAKRIEAGLYATQLMTELSERGEKLPAAQRRDMMWICRDGDRAKNHLLEANLRLVVSLAKRYTGRGMAFLDLIQEGNLGLIRAVEKFDYTKGYKFSTYATWWIRQAITRAMADQARTIRIPVHMVEVINKLGRIQRELLQDLGREPTPEELAKEMDITPEKVLEIQQYAREPISLDQTIGDEGDSQLGDFIEDSEAVVAVDAVSFTLLQDQLQSVLDTLSEREAGVVRLRFGLTDGQPRTLDEIGQVYGVTRERIRQIESKTMSKLRHPSRSQVLRDYLD | soluble |
| MGHHHHHHSHMRDCCGMVSSGSLSSLKAAERTPGALFFSSSTPGRYYNYDSSSRPQSRSVMSDQCAGQWFLKACGLGEGDTEVFPTQHVVRALQTIFELNVQAFAGGAMGAVNGMQPHGVPDKSSVQSDEVWVGVVYGLAATMIQEVMHSFSHLSTICILAQKTSSTTKFLQGITQCHLVRL | not soluble |
| MGSDKIHHHHHHMATNSSTEQSLTKKVWNLATTLAGQGIGFTDYITQLTYLLFLKMDAENVEMFGEESAIPTGYQWADLIAFDGLDLVKQYEETLKLLSELDNLIGTIYTKAQNKIDKPVYLKKVITMIDEEQWLIMDGDVKGAIYESILEKNGQDKKSGAGQYFTPRPLIQAMVDCINPQMGETVCDPACGTGGFLLTAYDYMKGQSASKEKRDFLRDKALHGVDNTPLVVTLASMNLYLHGIGTDRSPIVCEDSLEKEPSTLVDVILANPPFGTRPAGSVDINRPDFYVETKNNQLNFLQHMMLMLKTGGRAAVVLPDNVLFEAGAGETIRKRLLQDFNLHTILRLPTGIFYAQGVKANVLFFSKGQPTKEIWFYDYRTDIKHTLATNKLERHHLDDFVSCYNNRVEIYDAENNPQGRWRKYPVDEIIARDKTSLDITWIKPGGEVDDRSLAELMADIKDKSQTISRAVTELEKLLANIEEN | not soluble |
| MLGLRRKVRIETERMTLRLPAHSDWRDWAALRAESATFLTPWEPVWSSDHLSRKAFTNRVYWAARAESQGTALPVLLIRREDQALLGAITLDNIRRGPAQSGTLGYWIGRPHARQGYMREAIQGIVHHAFTAMDVSRIEAACLPENAASRGVLEKCGFKYEGVAQSYLQIAGRWRNHVLYANLRGDRRGRTDAG | not soluble |
| MGSDKIHHHHHHMPSIENMIAWMQARKGKVTYSMTSRMGPNSYDCSSSIFFAMIAGGFLSAGSMGNTETLFGMSGTKLKEISRGEVQRGDVFISGTPGGSAGSDGHTGIFLSNGSFIHCSYTHNGIAVDTNDAYMSTRLPHHFYRIVGSGSGNTDNKPQMVTLNVDGQFGNATAKRLQEYFDTAGKDGVISHQYKQTFNQNIYAAQFDSSLTGSNVVKALQRFLGIGQDGLFGQGTIKALQKHLGTTQDGTISPVSDSVRELQRRLNANKL | not soluble |
| MAHHHHHHMSRNGELCLKKVIISYCPSNGAPNTRQFLATHLPHFHAKYPSVSIDLRPRLWPEMAITGVYRDGSERSYNTKNLSPMGIFLRLNNLVSTANDYDQPFCASHLHFQRRSVQGTWNPWLWNYETERRRTEAPQWRRKLSEKEWDYYVGQYSAQMKQEEDEIQRRVADRTCVQEQSTREVQERWKRHVVPRMQTDLEFNLSHFKRQHARGQLQQRPVTMGEYRLFSVPDPRELGQDAVDTMRRRESHNMEVWWRKRKEQLKPP | not soluble |
| GPEQAMYSFMTYYIAMKTIDAVIQGLDETKAVIIVSEQYDEISDAILHRLGRGTTKLKGKGGYTDEEKDVIYAVVTRLEVTKLKSIVFEVDQNAFITIMNTHETRGGKFKNAIH | not soluble |
| MQPGGDMSALLAQAQQMQQKLLEAQQQLANSEVHGQAGGGLVKVVVKGSGEVIGVTIDPKVVDPDDIETLQDLIVGAMRDASQQVTKMAQERLGALAGAMRPPAPPAAPPGAPGMPGMPGMPGAPGAPPVPGI | not soluble |
| MSLTNKMIYDQASGLRRLTQPSVTKVISVTGGKGGVGKSNVTLGMAICMAKQGKKVMVLDADLGLANVDVMLGIRPKRNLGHVLAGECELKDAIVEGPHGIRIIPATSGTQSMTELSHAQHVGLIRAFGTLEDEMDILLIDTAAGISDMVVSFSRAAQDVVVVVCDEPTSITDAYALIKLLSKEHQVQRFKIVANMVRSYREGRELFAKLTLVTERFLNVSLELVACIPLDDNVRQAVKRQKIVVDAYPRSPAALAISSLANKALTWPIPRTPSGHLEFFVERLLNRSEGHHHHHH | soluble |
| MSLTAPLPYTRAANLPALLRERILILDGAMGTMIQRYKLTEAQYRGERFASHPVDVKGNNELLLLTRPEVIREIHEQYLAAGADLIETNTFGATTVAQEDYKMAELAYEMNVVAARLAREACDKYSTPDKPRFVAGAFGPTPKTASISPDVNDPGARNISFDQLRDAYYEQGKALLEGGADVFLVETIFDTLNAKAALFAIDQLFEDSGERVPVMISGTVTDASGRILSGQTVEAFWNSLRHAKPITFGLNCALGAALMRPYIAELAKICDTAVSCYPNAGLPNPMSDTGFDETPEVTSSLVDEFAAAGLVNLVGGCCGTTPEHIRAIAERVAQRKPRAWPGQYREAAEGHHHHHH | soluble |
| MGHHHHHHGGHMSLENLNSYIKGHFADSILVKEQILKDENLITLIKNASLEVIKAYKNGNKTLLAGNGGSAADAQHIAGEFVSRFYFDRPGIASIALTTDTSILTAIGNDYGYENLFARQVQAQGVKGDVFIGISTSGNSKNILKALEFCKQKEIISIGLSGASGGAMNELCDYCIKVPSTCTPRIQEAHILIGHIICAIVEEELFGKGFSCKQEGGS | soluble |
| MSLAEKPKKPQKLRARLPRGLADRGPAEIAATRAMVEKIREVYERYGFEPVETPAFEYTDALGKFLPDQDRPNEGVFSLQDDDEQWISLRYDLTAPLARYVAENFDQLPKPHRSYRFGWVFRNEKPGPGRFRQFMQFDADTVGAPTAAADAEMCMMAADTMEALGIPRGSYVVKVNNRKVLDGVLESIGLGGDENAGRRLTVLRAIDKSDKFAPEEIKKLLGPGRWDGGEEGKGDFTKGAMLSDDQSELILRATSPSFIAGRFNADGSGGISNIDTVELLRSTADNETLKQGCDELAVIADLLDACGYGATSANPDVRVVIDPSVVRGLEYYTGPVYEVELLLDTKDEKGRPVRFGSVGGGGRYDGLVSRFRGEPVPATGFSIGVSRLQAALTLIGQLGNKPQAGPVVVTVFGGEIAGYQKMVATLRKAGIRAELYLGNPKHSLGQQMKYADKRNSPCAIIQGSDEKQQGIVQIKDLILGAELASLEKDRDEYLKKQAEAQFSCNEDEMVAKVQELLQRRGWRGGKGIITITTDPNSSSVDKLAAALEHHHHHH | soluble |
| MSLSTFPTALAVAVSVPSSLTPQDFSWRKFKLKRNVKISRNFEFAISCSGDRAASIGFDVPFPKDYTELLQQVFILFAFSPLKIGGWGSRNRGGITREIKAKEATELALKDNRQLMEIEFPTAGLGSVPGDGEGGIEMTGSIQLIREFCDLLVIPEKATKTRIFFPEANEVKFARQSIFGGASFKLDYLTKPSFFEDFGFTEKVKMADRVKPEDELFIVAYPYFNVNEMLVVEELYQAAVLNTSRKLIIFNGELDRIRSDYPPFFYPKLAALSKTLFPKMETVYYIHNFKGRNGGVLFRCYPGPWKVFRRVGSTNICLHQQESMPSLKEVALDILPSAEGHHHHHH | not soluble |
| MSFEAFTELYIRDVKNRLKENTWLTKEHIIRTKILPFFGKLKISEISTKEIITWQNEMLAYRDEKKKPYSQTYLKTLHNQLSAIFNHAVRYYELRSNPAAKVGNMGSELEHHHHHH | not soluble |
| MGSDKIHHHHHHAQSIAKGSTPDFSEARTLIKGALENPETKDDAKTWYVAGFIEDQQFSNERTKQVLGQQPDEPVMYEALGSILPYFEKAYELDQLPNEKGKVKPKFTKDIKGILGANHVYYINGGAYYFDQKDYNKAYDFFEQYLKISDMPMFKGEAVAERDSNFMTVQFYAAVAATQLGDSQKAIAALERAKNTDYRASEVYQYLCYEYEQAKDTVNLEKTLEEGLNKFPEEQYFLMSLINNYIYSNRNEKAIEYLNTAIAKDSNNPQLYDVMGRVYETGLKDYAKAEEYFKKALAINPDYIESLSNLGRVYYNQGVNKQGEANMINDAKQYQEELGKAKEFFKQALPYFEKAHQMKPEEREYMTALRGIYYNLNMGDKFDAIEAEMNK | not soluble |
| MGSDKIHHHHHHMGLYDLLDAEGKDDQKGKSPGVAVGVVADNQDPEGMGRVKVRFPWKDDADESTWARVVTPMAGKGRGLWFLPEVGDEVLVAFDHGDVQHPYVLGSLWNGTDTPPGDNGDGNNNIRKITSRSGHELVFDDTSGAEKVVIRTKAGHAITLDDAGGGEKIEIKDKSGSNKLVIDSAQNSIGIESSMKLTIKGQMVEIQSDANMTLKAGAVMTIQGSMVKIN | not soluble |
